PMC5966407, “Distinct roles of XPF-ERCC1 and Rad1-Rad10-Saw1 in replication-coupled and uncoupled inter-strand crosslink repair” (Nature Communications, 2018)

Biological target: Rpa1 (yeast), the large subunit of the replication protein A (RPA) complex (S. cerevisiae (endogenous in yeast …, UniProt P22336 1-621))
Experiment: cell-based or functional assay

Sequence of Rpa1 (yeast), the large subunit of the replication protein A (RPA) complex (S. cerevisiae (P22336 whole entry, one chain of several): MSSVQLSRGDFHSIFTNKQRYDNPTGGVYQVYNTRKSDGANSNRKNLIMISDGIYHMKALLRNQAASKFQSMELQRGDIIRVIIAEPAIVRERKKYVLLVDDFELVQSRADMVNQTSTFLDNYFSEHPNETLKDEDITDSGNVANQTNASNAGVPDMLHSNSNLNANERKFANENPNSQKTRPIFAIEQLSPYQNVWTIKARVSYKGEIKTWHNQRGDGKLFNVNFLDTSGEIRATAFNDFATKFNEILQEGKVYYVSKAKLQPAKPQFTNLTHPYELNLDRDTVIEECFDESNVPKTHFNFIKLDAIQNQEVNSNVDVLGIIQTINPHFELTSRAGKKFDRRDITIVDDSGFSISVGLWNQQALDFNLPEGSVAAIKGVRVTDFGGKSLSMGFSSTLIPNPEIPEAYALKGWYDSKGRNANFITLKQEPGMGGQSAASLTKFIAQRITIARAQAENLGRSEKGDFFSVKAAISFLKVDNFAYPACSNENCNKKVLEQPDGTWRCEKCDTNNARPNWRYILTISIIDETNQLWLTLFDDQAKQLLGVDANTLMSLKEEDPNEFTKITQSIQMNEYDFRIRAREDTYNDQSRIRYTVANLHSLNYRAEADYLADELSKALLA

3′ flap cleavage by purified His-Rad1–Rad10 (200 nM) in the presence of purified yeast RPA (80 nM), in vitro endonuclease assay: ~2 fold
B1: His-Rad1 (natural protein, S. cerevisiae, UniProt P06777 1-1100, looked up)
chain: MSQLFYQGDSDDELQEELTRQTTQASQSSKIKNEDEPDDSNHLNEVENEDSKVLDDDAVLYPLIPNEPDDIETSKPNINDIRPVDIQLTLPLPFQQKVVENSLITEDALIIMGKGLGLLDIVANLLHVLATPTSINGQLKRALVLVLNAKPIDNVRIKEALEELSWFSNTGKDDDDTAVESDDELFERPFNVVTADSLSIEKRRKLYISGGILSITSRILIVDLLSGIVHPNRVTGMLVLNADSLRHNSNESFILEIYRSKNTWGFIKAFSEAPETFVMEFSPLRTKMKELRLKNVLLWPRFRVEVSSCLNATNKTSHNKVIEVKVSLTNSMSQIQFGLMECLKKCIAELSRKNPELALDWWNMENVLDINFIRSIDSVMVPNWHRISYESKQLVKDIRFLRHLLKMLVTSDAVDFFGEIQLSLDANKPSVSRKYSESPWLLVDEAQLVISYAKKRIFYKNEYTLEENPKWEQLIHILHDISHERMTNHLQGPTLVACSDNLTCLELAKVLNASNKKRGVRQVLLNKLKWYRKQREETKKLVKEVQSQDTFPENATLNVSSTFSKEQVTTKRRRTRGASQVAAVEKLRNAGTNVDMEVVFEDHKLSEEIKKGSGDDLDDGQEENAANDSKIFEIQEQENEILIDDGDAEFDNGELEYVGDLPQHITTHFNKDLWAEHCNEYEYVDRQDEILISTFKSLNDNCSLQEMMPSYIIMFEPDISFIRQIEVYKAIVKDLQPKVYFMYYGESIEEQSHLTAIKREKDAFTKLIRENANLSHHFETNEDLSHYKNLAERKLKLSKLRKSNTRNAGGQQGFHNLTQDVVIVDTREFNASLPGLLYRYGIRVIPCMLTVGDYVITPDICLERKSISDLIGSLQNNRLANQCKKMLKYYAYPTLLIEFDEGQSFSLEPFSERRNYKNKDISTVHPISSKLSQDEIQLKLAKLVLRFPTLKIIWSSSPLQTVNIILELKLGREQPDPSNAVILGTNKVRSDFNSTAKGLKDGDNESKFKRLLNVPGVSKIDYFNLRKKIKSFNKLQKLSWNEINELINDEDLTDRIYYFLRTEKEEQEQESTDENLESPGKTTDDNALHDHHNDVPEAPV
